Assay results from patent publication US20150359847A1, “METHOD AND COMPOSITION FOR CONFERRING NEUROPROTECTION” (BLOOD SYSTEMS RESEARCH INSTITUTE, priority 2014, published 2015).

What was measured:
[1] = test system: mouse model of controlled cortical impact (CCI); assay: Morris Water Maze in CCI TBI mice; assay type: in vivo
Text: (§1) The mouse controlled cortical impact (CCI) injury model was used as previously described. In brief, mice were anesthetized with 5% isoflurane and 1:1 O2:N2 mixture. Animals were mounted on a stereotaxic frame and were secured by ear bars and an incisor bar. Anesthesia was maintained with 2.0% isoflurane and 1:1 O2:N2 mixture. A 5-mm-diameter craniotomy was made midway between bregma and lambda on the right side, with the medial edge of the craniotomy 1 mm lateral to midline. Injury was produced using a magnetic impactor mounted at an angle of 110° from the vertical plane. A single impact at a velocity of 4+/−0.2 m/s was used inflict a moderate to severe injury (1.2-1.3 mm impact depth). After injury, the incision was closed. Sham animals underwent identical surgeries except for impact injury. Core body temperature was monitored using a rectal thermometer and maintained at 36.8° C.-37.2° C. with a heating pad throughout the procedure. For treatments, TIMP3 (60.0 μg/kg) or vehicle control (PBS) administration was performed at 2, 24, and 48 hrs after injury via tail vein injections in a total volume of 125 μl. Animal research was performed with approval of the Institutional Animal Care and Use Committee at ISIS Services LLC (San Carlos, Calif., USA). Mice received humane care according to the criteria outlined by the National Research Council's Institute of Laboratory Animal Resources in the “Guide for the Care and Use of Laboratory Animals”. Neurocognitive testing conducted at UT Houston was in compliance with University of Texas Houston Institutional Animal Care and Use Committee.
A modified Morris water maze task was used to assess long-term memory. Mice were trained to find the location of a hidden platform in one day. This was followed by probe at 30 mins following the last trial and another probe 24 hrs later. Mice were given 10 training trials with an inter-trial interval of 15 mins. Each trial was initiated by placing the animal into the water maze at one of four randomly chosen starting positions. The animal was allowed to search for the hidden platform for a period of 1 min, and the time to find the platform recorded. […] At thirty minutes and twenty-four hours following the final training trial, animals were tested in a probe trial in which the platform was removed from the tank and allowed to search for a period of 1 min. Movement within the maze was monitored using a video camera linked to […] software (Ethovision™, Noldus Information Technology, Leesbury, Va.). Measures of memory, including latency to first platform crossing, and number of crossings were recorded.

[2] = test system: phospho-S6 Ribosomal Protein (S235/236) in hippocampus; assay: Hippocampal phospho-S6RP western blot and tissue staining 3 days post-TBI; assay type: in vivo, mouse
Text: as §1
Following treatments mice were subjected to a intra-cardiac perfusion-fixation procedure under isoflurane anesthesia. In brief, following a small incision into the right ventricle, a blunt needle was placed 5 mm into the heart and clamped in place. The left atrium was cut and 30 mls of ice cold PBS was perfused through the mouse using a syringe pump at a constant rate of 4 ml/min. After PBS the procedure was repeated with 30 ml of 4% ice-cold paraformaldehyde (PFA) in PBS. Upon completion of the perfusion procedure, brains were dissected out and placed in 20 mls of 4% PFA for a further 24 hrs before transferring to a 30% sucrose solution for an additional 48 hrs. Following sucrose infiltration, brains were frozen in Tissue-Tek O.C.T.™ compound (Cat#4583, Sakura Fineteck USA, Inc. Torrance, Calif.) using an isopentane/dry ice bath. To prepare coronal sections for tissue staining 20 μm thick sections were obtained using a Leica CM1850™ cryostat (Leica Microsystems, Buffalo Grove, Ill.). Sections were immediately placed in a Storage Solution (30% Glycerol, 30% Ethylene Glycol, 40% 0.1M Phosphate Buffer pH 7.2) and stored at −20° C. until required.
The same protocol was adopted for both tissue sections and isolated neuronal cultures. Briefly, sections were permeabilized with antibody staining solution:—2% w/v BSA (Cat# A3059. Sigma, St Louis, Mo.), 0.1% Triton X-100™ (Cat# X100. Sigma, St Louis, Mo.), 2% v/v goats serum (Cat# S-1000, Vector Labs, Burlingame, Calif.) in PBS. Sections were incubated overnight with primary antibodies on a rotating shaker at 4° C. Sections were then washed three times for 3 min with PBS, and then incubated with secondary antibodies for 1 hr. After staining, sections were washed in PBS, briefly air dried, and coverslipped using Prolong™ gold anti-fade reagent with DAPI (Cat# P36931, Life Technologies, Grand Island, N.Y.). Isolated neuronal cultures underwent the same staining protocol with the exception of the last step in which Prolong gold anti-fade reagent with DAPI was added to the wells of the culture plate sufficient to cover the material. Images were obtained using a Leica DMI6000-B™ inverted microscope, Leica DFC36-FX™ digital camera and Leica Application Suite™ (L.A.S.) software, version 3.1. […]

[3] = test system: phospho-Akt (Ser473) in hippocampal homogenates; assay: Hippocampal phospho-Akt western blot 3 days post-TBI; assay type: in vivo, mouse
Text: The mouse controlled cortical impact (CCI) injury model was used as previously described. In brief, mice were anesthetized with 5% isoflurane and 1:1 O2:N2 mixture. Animals were mounted on a stereotaxic frame and were secured by ear bars and an incisor bar. Anesthesia was maintained with 2.0% isoflurane and 1:1 O2:N2 mixture. A 5-mm-diameter craniotomy was made midway between bregma and lambda on the right side, with the medial edge of the craniotomy 1 mm lateral to midline. Injury was produced using a magnetic impactor mounted at an angle of 110° from the vertical plane. A single impact at a velocity of 4+/−0.2 m/s was used inflict a moderate to severe injury (1.2-1.3 mm impact depth). After injury, the incision was closed. […] Core body temperature was monitored using a rectal thermometer and maintained at 36.8° C.-37.2° C. with a heating pad throughout the procedure. […]
Cell lysates for western blotting were prepared with RIPA buffer (Cat#89900. Thermofisher Scientific, Rockford, Ill.) supplemented with phosphatase inhibitor cocktail 2 (Cat# P5726. Sigma, St Louis, Mo.), phosphatase inhibitor cocktail 3 (Cat# P0044. Sigma, St Louis, Mo.) and complete protease inhibitor (Cat#1862209. Thermofisher Scientific, Rockford, Ill.). […] Protein content was quantified with a Pierce BCA protein assay kit per manufacturer's instructions (Cat#23225. Thermofisher Scientific, Rockford, Ill.). […]

[4] = long-term probe, TBI+TIMP3 vs TBI alone

B1: TIMP3: Recombinant tissue inhibitor of matrix metalloproteinase-3, a soluble protein released by MSCs, obtained from Amgen Inc. (protein)
chain: CTCSPSHPQDAFCNSDIVIRAKVVGKKLVKEGPFGTLVYTIKQMKMYRGFTKMPHVQYIHTEASESLCGLKLEVNKYQYLLTGRVYDGKMYTGLCNFVERWDQLTLSQRKGLNYRYHLGCNCKIKSCYYLPCFVTSKNECLWTDMLSNFGYPGYQSKHYACIRQKGGYCSWYRGWAPPDKSIINATDP
ability to learn the platform location during training ([1]; TBI+TIMP3 vs TBI alone): did not significantly differ | total number of correct platform crossings (Morris Water Maze) ([1]; TIMP3 60 μg/kg IV x3, long-term memory probe 24 hrs after training, days 8-9): 1.9±0.4 | latency to first platform crossing [1, 4]: did not significantly differ | time in the area around the platform (concentric rings) [1, 4]: spent more time in the area around the platform | ipsilateral hippocampal phospho-S6RP levels versus sham controls ([2]; 3 days post-TBI, western blot): are not significantly elevated in TBI alone versus sham controls unlike IV TIMP3 treated animals versus Sham controls | phospho-S6 Ribosomal Protein (S235/236) in ipsilateral hippocampal homogenates ([2]; TIMP3 60 μg/kg IV x3, day 3, western blot, vs TBI alone): significantly elevates | phospho-S6RP pixel density in area CA3 ([2]; day 3, tissue staining): significant elevation | phospho-S6RP/NeuN+ve neurons in the GCL proximal to injury site ([2]; day 3, tissue staining): an elevation with TIMP3 treatment | phospho-S6RP (S235/236) in contralateral hippocampal homogenates ([2]; day 3, western blot): No differences were observed | phosphorylated S6RP staining in the non-neuronal molecular layer (microglia/astrocytes) ([2]; ipsilateral hippocampus, day 3): Neither sham controls nor TIMP3 treated TBI mice showed this pattern of staining | phospho-Akt (Ser473) in ipsilateral hippocampal homogenates ([3]; TIMP3 60 μg/kg IV x3, day 3, 1 hr after last injection, vs TBI alone): significantly elevates | Phospho-Akt (Ser473) in contralateral hippocampal homogenates ([3]; day 3): No differences were observed
